{
  "source": "paper PMC6850750",
  "about": "(Biochemistry, 2019)",
  "biological_target": "the molecule itself",
  "test": "SEC",
  "data": [
    {"protein": "YdjI (enzyme, E. coli K12, Cys234 oxidized to cysteic acid (seen in the electron density of each subunit)) MLADIRYWENDATNKHYAIAHFNVWNAEMLMGVIDAAEEAKSPVIISFGTGFVGNTSFEDFSHMMVSMAQKATVPVITHWDHGRSMEIIHNAWTHGMNSLMRDASAFDFEENIRLTKEAVDFFHPLGIPVEAELGHVGNETVYEEALAGYHYTDPDQAAEFVERTGCDSLAVAIGNQHGVYTSEPQLNFEVVKRVRDAVSVPLVLHGASGISDADIKTAISLGIAKINIHTELCQAAMVAVKENQDQPFLHLEREVRKAVKERALEKIKLFGSDGKAE", "values": [
      {"measurement": "stoichiometry N", "result": 4}
    ]}
  ]
}
